The record followed here is the Human Domainome abundance scans (Beltran et al. 2025).

B1: Double-stranded RNA-specific adenosine deaminase, residues 296 to 358; numbered along this chain, P55265 (parent)
chain: MAEIKEKICDYLFNVSDSSALNLAKNIGLTKARDINAVLIDMERQGDVYRQGTTPPIWHLTDK

± gives the uncertainty stated by the source.

The variants in this series derive from B1. Kind of series: abundance fitness (aPCA) (normalised: wild type 0, dead -1); higher = more abundant; growth selection in yeast, the domain comes from the species named. The following applies: Homo sapiens.
Consider MAEIKEKICDYLFNVSDSSELNLAKNIGLTKARDINAVLIDMERQGDVYRQGTTPPIWHLTDK [A20E], for which the abundance fitness was -0.216 ± 0.098.

Take MAEIKEKICDYLFNVSDSSPLNLAKNIGLTKARDINAVLIDMERQGDVYRQGTTPPIWHLTDK [A20P]: the abundance fitness is -0.673 ± 0.1.

With MAEIKEKICDYLFNVSDSSLLNLAKNIGLTKARDINAVLIDMERQGDVYRQGTTPPIWHLTDK [A20L], the abundance fitness is -0.42 ± 0.057.

With MAEIKEKICDYLFNVSDSSNLNLAKNIGLTKARDINAVLIDMERQGDVYRQGTTPPIWHLTDK [A20N], the abundance fitness was -0.481 ± 0.19.

As to MAEIKEKICDYLFNVSDSSFLNLAKNIGLTKARDINAVLIDMERQGDVYRQGTTPPIWHLTDK [A20F], the abundance fitness was -0.311 ± 0.071.

For the variant MAEIKEKICDYLFNVSDSSQLNLAKNIGLTKARDINAVLIDMERQGDVYRQGTTPPIWHLTDK [A20Q], the abundance fitness is -0.472 ± 0.094.

MAEIKEKICDYLFNVSDSSKLNLAKNIGLTKARDINAVLIDMERQGDVYRQGTTPPIWHLTDK [A20K]: the abundance fitness was -0.606 ± 0.083.

In the case of MAEIKEKICDYLFNVSDSSDLNLAKNIGLTKARDINAVLIDMERQGDVYRQGTTPPIWHLTDK [A20D], the abundance fitness was -0.64 ± 0.26.

For MAEIKEKICDYLFNVSDSSTLNLAKNIGLTKARDINAVLIDMERQGDVYRQGTTPPIWHLTDK [A20T], the abundance fitness was -0.295 ± 0.065.

Regarding MAEIKEKICDYLFNVSDSSVLNLAKNIGLTKARDINAVLIDMERQGDVYRQGTTPPIWHLTDK [A20V], the abundance fitness was -0.446 ± 0.056.

Regarding MAEIKEKICDYLFNVSDSSSLNLAKNIGLTKARDINAVLIDMERQGDVYRQGTTPPIWHLTDK [A20S], the abundance fitness is -0.228 ± 0.052.

In the case of MAEIKEKICDYLFNVSDSSRLNLAKNIGLTKARDINAVLIDMERQGDVYRQGTTPPIWHLTDK [A20R], the abundance fitness was -0.615 ± 0.051.

For the variant MAEIKEKICDYLFNVSDSSGLNLAKNIGLTKARDINAVLIDMERQGDVYRQGTTPPIWHLTDK [A20G], the abundance fitness was -0.45 ± 0.055.

Turning to MAEIKEKICDYLFNVSDSSWLNLAKNIGLTKARDINAVLIDMERQGDVYRQGTTPPIWHLTDK [A20W], the abundance fitness is -0.627 ± 0.076.

Take MAEIKEKICDYLFNVSDSSYLNLAKNIGLTKARDINAVLIDMERQGDVYRQGTTPPIWHLTDK [A20Y]: the abundance fitness is -0.901 ± 0.19.

Regarding MAEIKEKICDYLFNVSDSSILNLAKNIGLTKARDINAVLIDMERQGDVYRQGTTPPIWHLTDK [A20I], the abundance fitness is -0.68 ± 0.12.

As to MAEIKEKICDYLFNVSDSSHLNLAKNIGLTKARDINAVLIDMERQGDVYRQGTTPPIWHLTDK [A20H], the abundance fitness was -0.578 ± 0.091.

In the case of MAEIKEKICDYLFNVSDSSALNCAKNIGLTKARDINAVLIDMERQGDVYRQGTTPPIWHLTDK [L23C], the abundance fitness is -0.474 ± 0.091.

With MAEIKEKICDYLFNVSDSSALNAAKNIGLTKARDINAVLIDMERQGDVYRQGTTPPIWHLTDK [L23A], the abundance fitness was -0.368 ± 0.064.

Take MAEIKEKICDYLFNVSDSSALNEAKNIGLTKARDINAVLIDMERQGDVYRQGTTPPIWHLTDK [L23E]: the abundance fitness is -0.329 ± 0.067.

As to MAEIKEKICDYLFNVSDSSALNDAKNIGLTKARDINAVLIDMERQGDVYRQGTTPPIWHLTDK [L23D], the abundance fitness is -0.313 ± 0.11.

For the variant MAEIKEKICDYLFNVSDSSALYLAKNIGLTKARDINAVLIDMERQGDVYRQGTTPPIWHLTDK [N22Y], the abundance fitness is -0.386 ± 0.14.

Regarding MAEIKEKICDYLFNVSDSSALSLAKNIGLTKARDINAVLIDMERQGDVYRQGTTPPIWHLTDK [N22S], the abundance fitness is -0.323 ± 0.066.

Take MAEIKEKICDYLFNVSDSSALWLAKNIGLTKARDINAVLIDMERQGDVYRQGTTPPIWHLTDK [N22W]: the abundance fitness is -0.609 ± 0.11.

On to MAEIKEKICDYLFNVSDSSALHLAKNIGLTKARDINAVLIDMERQGDVYRQGTTPPIWHLTDK [N22H], for which the abundance fitness was -0.117 ± 0.17.

With MAEIKEKICDYLFNVSDSSALGLAKNIGLTKARDINAVLIDMERQGDVYRQGTTPPIWHLTDK [N22G], the abundance fitness is -0.314 ± 0.087.

Take MAEIKEKICDYLFNVSDSSALLLAKNIGLTKARDINAVLIDMERQGDVYRQGTTPPIWHLTDK [N22L]: the abundance fitness is -0.479 ± 0.042.

For MAEIKEKICDYLFNVSDSSALRLAKNIGLTKARDINAVLIDMERQGDVYRQGTTPPIWHLTDK [N22R], the abundance fitness was -0.682 ± 0.11.

For the variant MAEIKEKICDYLFNVSDSSALKLAKNIGLTKARDINAVLIDMERQGDVYRQGTTPPIWHLTDK [N22K], the abundance fitness is -0.424 ± 0.084.

For the variant MAEIKEKICDYLFNVSDSSALPLAKNIGLTKARDINAVLIDMERQGDVYRQGTTPPIWHLTDK [N22P], the abundance fitness is -0.219 ± 0.18.

Take MAEIKEKICDYLFNVSDSSALDLAKNIGLTKARDINAVLIDMERQGDVYRQGTTPPIWHLTDK [N22D]: the abundance fitness came to 0.004 ± 0.093.

Take MAEIKEKICDYLFNVSDSSALELAKNIGLTKARDINAVLIDMERQGDVYRQGTTPPIWHLTDK [N22E]: the abundance fitness is 0.165 ± 0.083.

Consider MAEIKEKICDYLFNVSDSSALQLAKNIGLTKARDINAVLIDMERQGDVYRQGTTPPIWHLTDK [N22Q], for which the abundance fitness is 0.162 ± 0.099.

Turning to MAEIKEKICDYLFNVSDSSALVLAKNIGLTKARDINAVLIDMERQGDVYRQGTTPPIWHLTDK [N22V], the abundance fitness was -0.18 ± 0.078.

In the case of MAEIKEKICDYLFNVSDSSALMLAKNIGLTKARDINAVLIDMERQGDVYRQGTTPPIWHLTDK [N22M], the abundance fitness is -0.493 ± 0.1.

Regarding MAEIKEKICDYLFNVSDSSALTLAKNIGLTKARDINAVLIDMERQGDVYRQGTTPPIWHLTDK [N22T], the abundance fitness was -0.141 ± 0.087.

As for MAEIKEKICDYLFNVSDSSALALAKNIGLTKARDINAVLIDMERQGDVYRQGTTPPIWHLTDK [N22A], the abundance fitness is -0.297 ± 0.12.

Turning to MAEIKEKICDYLFNVSDSSALILAKNIGLTKARDINAVLIDMERQGDVYRQGTTPPIWHLTDK [N22I], the abundance fitness is -0.339 ± 0.12.

Regarding MAEIKEKICDYLFNVSTSSALNLAKNIGLTKARDINAVLIDMERQGDVYRQGTTPPIWHLTDK [D17T], the abundance fitness is -0.501 ± 0.49.

With MAEIKEKICDYLFNVSASSALNLAKNIGLTKARDINAVLIDMERQGDVYRQGTTPPIWHLTDK [D17A], the abundance fitness came to 0.405 ± 0.22.

Turning to MAEIKEKICDYLFNVSMSSALNLAKNIGLTKARDINAVLIDMERQGDVYRQGTTPPIWHLTDK [D17M], the abundance fitness is -0.499 ± 0.27.

In the case of MAEIKEKICDYLFNVSDRSALNLAKNIGLTKARDINAVLIDMERQGDVYRQGTTPPIWHLTDK [S18R], the abundance fitness was -0.721 ± 0.056.
